Tests used:
[1] = molecular target: SARS-CoV-2 RBD sortase A conjugated nanoparticle (RBD-scNP) (SARS-CoV-2, Wuhan strain (RBD moiety), UniProt P0DTC2); experiment: BLI
[2] = molecular target: monomeric SARS-CoV-2 receptor binding domain (RBD) (SARS-CoV-2, UniProt P0DTC2); experiment: SPR

| Binder | binding result [1] | Kd [2] [nM] |
| --- | --- | --- |
| DH1041 (ACE2 binding site-targeting RBD neutralizing antibody) (antibody, V domains shown) VH: EVQLVESGGGLVQPGGSLRLSCAASGVTFSSYWMSWVRQAPGKGLEWVANIRQDGSEKYSVDSVKGRFTISRDNAKNSLYLQMNSLRAEDTAVYYCARARRADNSGYYGFHFDCWGQGTLVTVSS VL: QSVLTQPPSVSGAPGQRVTISCTGSSSNIGAGYDVHWYQQLPGTAPKLLIYGNNNRPSGVPDRFSDSKSGTSASLAITRLQAEDEADYYCQSYDSSLSGWVFGGGTKLTVL | binds | – |
| DH1047 antigen binding fragment (Fab) (Fab, V domains shown) VH: QVQLVQSGAEVKKPGASVQVSCQASANTFTNHYIHWVRQAPGQGLEWMGIIYPTGGNTIYAQGFQGRVTMTRDTSLNTIYLELSSLRSEDTAVYYCARDVRVDDSWSGYDLLSGGTYFDYWGQGTLVTVSS VL: not shown | – | < 0.02 |

— article doi:10.1101/2021.02.17.431492 (bioRxiv, 2021)
